Measured values reported in PMC8024337.

Molecular target: Ror2-mCherry (xRor2-mCherry in pCS2+)
Assay: fluorescence cross-correlation spectroscopy (FCCS); plasma membrane of live PAC2 cells expressing GFP-Vangl2 and Ror2-mCherry; untreated control (no Wnt protein added); laser spot scanned across the membrane for 16 s; diffusion with triplet fit

GFP-Vangl2 (meGFP-Vangl2 in pcDNA3.1) (from UniProt Q8UVJ6 1-526) (natural protein)
KD without m3 or m4 (untreated control): > 1100 nM
